Reference: PMC6265447, “The bacterial Mre11–Rad50 homolog SbcCD cleaves opposing strands of DNA by two chemically distinct nuclease reactions”

Target: SbcC;SbcD H84Q (Escherichia coli;Escherichia coli, UniProt P13458;P0AG76 1-1048;1-400, |H84Q)
Assay: fluorescence anisotropy; 1 mM ATP, 5 mM Mg2+, 1 mM Mn2+; 25 mM Tris pH 7.5, 50 mM KCl, 5 mM MgCl2, 1 mM MnCl2, 1 mM DTT, 1 mM ATP where stated; 5 nM DNA, 2-1000 nM SbcCD, 20 min at 25 C
Settings: protein: recombinant;recombinant; tags: ;C-terminal His6; chain copies: 2;2; label: 5' 6-FAM; blunt

B1: 25 bp DNA (dsDNA)
DNA 1: CGCTTTATCAGAAGCCAGACATTAA
DNA 2: TTAATGTCTGGCTTCTGATAAAGCG
Kd: 146 ± 46 nM

B2: 30 bp DNA (dsDNA)
DNA 1: CGCTTTATCAGAAGCCAGACATTAACGCTT
DNA 2: AAGCGTTAATGTCTGGCTTCTGATAAAGCG
Kd: 43 ± 7 nM
